From US5596072

Molecular target: functional human IL-4 receptor (hIL-4R) on TF-1 cells (human) (UniProt P24394)
Assay: displacement of I^125-hIL-4 from TF-1 cells

B1: mouse IL-13 (mouse P600), E. coli-derived (ligand)
chain: APGPVPRSVSLPLTLKELIEELSNITQDQTPLCNGSMVWSVDLAAGGFCVALDSLTNISNCNAIYRTQRILHGLCNRKAPTTVSSLPDTKI
B1 gave an IC50 of 200 pM and a percent of the I^125-hIL-4 binding displaced of 70%.
